Source: patent publication US20120308571A1 (FUJIFILM RI PHARMA, published 2012)

T1: human podoplanin (human, UniProt Q86YL7 23-162)
T1 construct: whole, on cells; also called Aggrus
T1 sequence (looked up): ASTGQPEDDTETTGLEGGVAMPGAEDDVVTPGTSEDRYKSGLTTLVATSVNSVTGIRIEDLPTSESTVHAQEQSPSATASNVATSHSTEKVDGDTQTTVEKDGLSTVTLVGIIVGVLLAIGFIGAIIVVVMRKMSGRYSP


How the values were obtained:
human podoplanin [1] = target: T1, human podoplanin; assay: flow cytometry on H2052 mesothelioma cells, 10 ug/ml antibody
Experimental: Meanwhile, the expression of podoplanin in the mesothelioma cells was confirmed by flow cytometry. Specifically, the cells were reacted with NZ-1 antibodies (10 μg/ml) at 4° C. for 30 minutes, and further reacted with anti-rat IgG-FITC antibodies at 4° C. for 30 minutes. Fluorescence intensity was measured by FACSCalibur (BD).

human podoplanin [2] = target: T1, human podoplanin; assay: flow cytometry on H226 and LN319 cells, 10 ug/ml antibody
Experimental: First, NZ-1 antibodies, mouse chimera-type NZ-1 antibodies, and human chimera-type NZ-1 antibodies (10 μg/ml) were reacted at 4° C. for 30 minutes with human malignant mesothelioma cells (H226) and human glioma cells (LN319) which expressed human podoplanin. In addition, anti-rat IgG-FITC antibodies, anti-mouse IgG-FITC antibodies, and anti-human IgG-FITC antibodies were respectively reacted at 4° C. for 30 minutes. The fluorescence intensity was measured by FACSCalibur (BD).

binding result (human podoplanin [1]) | binding result (human podoplanin [2]) | Binder
binds |  | rat NZ-1 antibody (antibody, Rat monoclonal antibody from the NZ-1 hybridoma; also called rat monoclonal antibody NZ-1) heavy: EVQLVESGGGLVQPGRSLKLSCAASGFTFSNYGMAWVRQTPTKGLEWIASISAGGDKTYYGDSVKGRFSISRDNAKTTHYLQMDSLRSEDTATYYCAKTSRVYFDYWGQGVMVTVSSAETTAPSVYPLAPGTALKSNSMVTLGCLVKGYFPEPVTVTWNSGALSSGVHTFPAVLQSGLYTLTSSVTVPSSTWSSQAVTCNVAHPASSTKVDKKIVPRECNPCGCTGSEVSSVFIFPPKTKDVLTITLTPKVTCVVVDISQNDPEVRFSWFIDDVEVHTAQTHAPEKQSNSTLRSVSELPIVHRDWLNGKTFKCKVNSGAFPAPIEKSISKPEGTPRGPQVYTMAPPKEEMTQSQVSITCMVKGFYPPDIYTEWKMNGQPQENYKNTPPTMDTDGSYFLYSKLNVKKETWQQGNTFTCSVLHEGLHNHHTEKSLSHSPGK light: QFVLTQPNSVSTNLGSTVKLSCKRSTGNIGSNYVNWYQQHEGRSPTTMIYRDDKRPDGVPDRFSGSIDRSSNSALLTINNVQTEDEADYFCHSYSSGIVFGGGTKLTVLGQPKSTPTLTVFPPSTEELQGNKATLVCLISDFYPSDVEVAWKANGAPISQGVDTANPTKQGNKYIASSFLRLTAEQWRSRNSFTCQVTHEGNTVEKSLSPAECV
 | binds | mouse chimera-type NZ-1 antibody (antibody, Heavy chain is the VH and CH1 of rat NZ-1 joined to the hinge, CH2 and CH3 of mouse IgG2a; Light chain is the rat NZ-1 L chain; also called mouse chimeric antibody; mouse chimera-type antibody) heavy: EVQLVESGGGLVQPGRSLKLSCAASGFTFSNYGMAWVRQTPTKGLEWIASISAGGDKTYYGDSVKGRFSISRDNAKTTHYLQMDSLRSEDTATYYCAKTSRVYFDYWGQGVMVTVSSAETTAPSVYPLAPGTALKSNSMVTLGCLVKGYFPEPVTVTWNSGALSSGVHTFPAVLQSGLYTLTSSVTVPSSTWSSQAVTCNVAHPASSTKVDKKIVPRRSPPLKECPPCAAPDLLGGPSVFIFPPKIKDVLMISLSPMVTCVVVDVSEDDPDVQISWFVNNVEVHTAQTQTHREDYNSTLRVVSALPIQHQDWMSGKEFKCKVNNRALPSPIEKTISKPRGPVRAPQVYVLPPPAEEMTKKEFSLTCMITGFLPAEIAVDWTSNGRTEQNYKNTATVLDSDGSYFMYSKLRVQKSTWERGSLFACSVVHEGLHNHLTTKTISRSLGK light: QFVLTQPNSVSTNLGSTVKLSCKRSTGNIGSNYVNWYQQHEGRSPTTMIYRDDKRPDGVPDRFSGSIDRSSNSALLTINNVQTEDEADYFCHSYSSGIVFGGGTKLTVLGQPKSTPTLTVFPPSTEELQGNKATLVCLISDFYPSDVEVAWKANGAPISQGVDTANPTKQGNKYIASSFLRLTAEQWRSRNSFTCQVTHEGNTVEKSLSPAECV
 | binds | human chimera-type NZ-1 antibody (antibody, Heavy chain is the VH of rat NZ-1 joined to the CH1, hinge, CH2 and CH3 of human IgG1; also called human chimeric antibody; human chimera-type antibody) heavy: not shown light: QFVLTQPNSVSTNLGSTVKLSCKRSTGNIGSNYVNWYQQHEGRSPTTMIYRDDKRPDGVPDRFSGSIDRSSNSALLTINNVQTEDEADYFCHSYSSGIVFGGGTKLTVLGQPKGIRTVAAPSVFIFPPSDEQLKSGTASVVCLLNNFYPREAKVQWKVDNALQSGNSQESVTEQDSKDSTYSLSSTLTLSKADYEKHKVYACEVTHQGLSSPVTKSFNRGEC
